“And” between values parts separate entries of the source, which are not always exact repeats. Equal values may be shown once.
Tests used:
Type in all cases: physicochemical
[1] = Insulin stability after aerosol generation, size exclusion chromatography (SEC)
Source text: Size Exclusion Chromatography (SEC): Alternately, to determine the stability of active agent after droplet generation, the generated stream of droplets including the active agent may be collected and SEC-HPLIC may be employed to monitor for any changes in large molecule aggregation and protein fragment content. Soluble protein aggregates and protein fragment content may be calculated by comparing respective peak area under the SEC-HPLC curve of dispensed protein solutions with controls (solutions remaining in the device reservoir).
Drug solutions for testing include Enbrel, (ENBREL® single-use prefilled syringes in 25 mg (0.51 mL of a 50 mg/mL solution of etanercept), and insulin, (Humalog, 200 units/ml, 3 ml kwikpens)
Aerosol collection and SEC is performed in a similar fashion as for the Enbrel analysis and aerosol collection.
Fifty microliters of the collected aerosol spray is injected onto the SEC column for analysis, while 50 mcl of the Kwikpen insulin solution is injected onto the SEC column for control samples.

[2] = Gel electrophoresis of active agent after droplet generation; conditions: 'will show'
Source text: Gel Electrophoresis: To determine the stability of active agent after droplet generation, the generated stream of droplets including the active agent is collected and the molecular weight of the active agent is verified using gel electrophoresis.

[3] = Enbrel stability after aerosol generation, size exclusion chromatography (SEC)
Source text: Size Exclusion Chromatography (SEC): Alternately, to determine the stability of active agent after droplet generation, the generated stream of droplets including the active agent may be collected and […] may be employed to monitor for any changes in large molecule aggregation and protein fragment content. Soluble protein aggregates and protein fragment content may be calculated by comparing respective peak area under the SEC-HPLC curve of dispensed protein solutions with controls (solutions remaining in the device reservoir). Drug solutions for testing include Enbrel, (ENBREL® single-use prefilled syringes in 25 mg (0.51 mL of a 50 mg/mL solution of etanercept), and insulin, (Humalog, 200 units/ml, 3 ml […] is performed with a YarraTM 3 μm SEC-2000 LC column 300×7.8 mm, SecurityGuard cartridge kit and SecurityGuard cartridges GFC-2000, 4×3 mm ID. Fifty microliters of Enbrel from the syringe (ENBREL® single-use prefilled syringes in 25 mg/0.51 mL of a 50 mg/mL solution of etanercept) is diluted (4:1) (4 parts, 200 mcl of the mobile phase buffer solution to 1 part, 50 mcl Enbrel from syringe). Fifty microliter of the diluted Enbrel is injected and separation was performed at a flow rate of 1.0 ml/min. The mobile phase buffer system included a PHOS. BUFF. SALINE. […] UV detection is performed at 280 nm. […] An ampule/cartridge is filled with either 0.20 ml of Enbrel® (50 mg/ml) diluted 4:1 (10 mg/ml) (4 parts (200 mcl) of PBS and 0.025% NaN3 and 1 part (50 mcl of Enbrel solution from the syringe). After 20 actuations and aerosolization, about 150 mcl of the aerosolized Enbrel solution is recovered and collected in the polypropylene tube located below the ejector mechanism. The control consists of the diluted Enbrel solution, 50 mcl of which is injected into the SEC column for analysis.

[4] = Anderson Cascade Impactor testing of droplet delivery device with Albuterol sulfate (Example B); conditions: Albuterol 0.5%, 28.3 lpm
Source text: FIGS. 21A-21E provide a summary of the test results.

[5] = aerosolized samples S1, S2 (summary table)
[6] = control, Enbrel diluted 4:1 (10 mg/ml), SEC UV 280 nm

Question: What does the source list for “Insulin: insulin, Humalog, 200 units/ml, 3 ml kwikpens”?
Answer: Peak 3 [1, 5]: 2.797 and 2.184; Peak 3 Peak Area % ([1]; control, Insulin from Kwikpen 200 U/ml, SEC): 0%; ejected dose forming a fragment ([1]; fragment eluting at ~25 minutes): 2.5%

Question: With etanercept [Enbrel] as the substance, how does the “change in the electrophoretic mobility, and hence the molecular weight, post-aerosol vs control” value (“change in the electrophoretic mobility” below) [2] read?
Answer: negligible change

Question: What about the “Peak 4” value [3, 5] of the same substance?
Answer: 0.357 and 0.352

Question: And the “Peak 5” value [3, 5]?
Answer: 5.123 and 3.428

Question: And the “Peak 4 Peak Area %” value [3, 6]?
Answer: 0%

Question: And the “Peak 5 Peak Area %” value [3, 6]?
Answer: 0%

Question: What about the “dose leading to formation of molecular fragments” value ([3]; fragments with elution times of 13 and 25 minutes) of the same substance?
Answer: 4.6%

Question: For adalimumab, which “change in the electrophoretic mobility” value [2] is on record?
Answer: negligible change

Question: With bevacizumab as the substance, how does the “change in the electrophoretic mobility” value [2] read?
Answer: negligible change

Question: Which results are given for Albuterol sulfate?
Answer: Cum. % < ([4]; FILTER stage, 10 actuations): 0.00%; Cum. % > ([4]; FILTER stage, 10 actuations): 100.00%; Coarse ([4]; summary of deposition): 22.7; Fine ([4]; summary of deposition): 3.5; Mouthpiece ([4]; summary of deposition): 12.2; Respirable ([4]; summary of deposition): 69.3; Throat ([4]; summary of deposition): 4.6

Reference: patent publication US12491324B2, “Droplet device with inertial filtering” (PNEUMA RESPIRATORY, INC., priority 2016, dated 2025)
